Values joined by “and” are separate entries in the source; they are usually repeats but may differ in a detail not shown here. Identical values can stand only once.
Target: N-terminal domain of mouse gasdermin-A3 released by TEV cleavage (mGSDMA3^Nterm) (mouse) (UniProt Q5Y4Y6)
Assay: atomic force microscopy; supported lipid membranes (E. coli polar lipid extract) on mica incubated 3 h at 37 °C with 1.5 µM mGSDMA3 pre-cleaved with 0.4 µM TEV, rinsed, imaged by contact mode or FD-based AFM at room temperature in 50 mM NaCl, 0.1 mM EDTA, 0.1 mM TCEP, 20 mM Hepes, pH 7.4; subunits of ring-shaped oligomers counted from rotational power spectra

In the case of “N-terminal domain of mouse gasdermin-A3 released by TEV cleavage (mGSDMA3^Nterm) (from UniProt Q5Y4Y6 1-237) (domain or fragment)”, the stoichiometry N is reported as 18 to 36 (2×) and 30.

From publication PMC9095878
